The test concerns the target T1, ΔN100 y-mtRNAP (yeast mitochondrial RNA polymerase, RPO41) (Saccharomyces cerevisiae, UniProt P13433 101-1351).
T1 sequence (looked up): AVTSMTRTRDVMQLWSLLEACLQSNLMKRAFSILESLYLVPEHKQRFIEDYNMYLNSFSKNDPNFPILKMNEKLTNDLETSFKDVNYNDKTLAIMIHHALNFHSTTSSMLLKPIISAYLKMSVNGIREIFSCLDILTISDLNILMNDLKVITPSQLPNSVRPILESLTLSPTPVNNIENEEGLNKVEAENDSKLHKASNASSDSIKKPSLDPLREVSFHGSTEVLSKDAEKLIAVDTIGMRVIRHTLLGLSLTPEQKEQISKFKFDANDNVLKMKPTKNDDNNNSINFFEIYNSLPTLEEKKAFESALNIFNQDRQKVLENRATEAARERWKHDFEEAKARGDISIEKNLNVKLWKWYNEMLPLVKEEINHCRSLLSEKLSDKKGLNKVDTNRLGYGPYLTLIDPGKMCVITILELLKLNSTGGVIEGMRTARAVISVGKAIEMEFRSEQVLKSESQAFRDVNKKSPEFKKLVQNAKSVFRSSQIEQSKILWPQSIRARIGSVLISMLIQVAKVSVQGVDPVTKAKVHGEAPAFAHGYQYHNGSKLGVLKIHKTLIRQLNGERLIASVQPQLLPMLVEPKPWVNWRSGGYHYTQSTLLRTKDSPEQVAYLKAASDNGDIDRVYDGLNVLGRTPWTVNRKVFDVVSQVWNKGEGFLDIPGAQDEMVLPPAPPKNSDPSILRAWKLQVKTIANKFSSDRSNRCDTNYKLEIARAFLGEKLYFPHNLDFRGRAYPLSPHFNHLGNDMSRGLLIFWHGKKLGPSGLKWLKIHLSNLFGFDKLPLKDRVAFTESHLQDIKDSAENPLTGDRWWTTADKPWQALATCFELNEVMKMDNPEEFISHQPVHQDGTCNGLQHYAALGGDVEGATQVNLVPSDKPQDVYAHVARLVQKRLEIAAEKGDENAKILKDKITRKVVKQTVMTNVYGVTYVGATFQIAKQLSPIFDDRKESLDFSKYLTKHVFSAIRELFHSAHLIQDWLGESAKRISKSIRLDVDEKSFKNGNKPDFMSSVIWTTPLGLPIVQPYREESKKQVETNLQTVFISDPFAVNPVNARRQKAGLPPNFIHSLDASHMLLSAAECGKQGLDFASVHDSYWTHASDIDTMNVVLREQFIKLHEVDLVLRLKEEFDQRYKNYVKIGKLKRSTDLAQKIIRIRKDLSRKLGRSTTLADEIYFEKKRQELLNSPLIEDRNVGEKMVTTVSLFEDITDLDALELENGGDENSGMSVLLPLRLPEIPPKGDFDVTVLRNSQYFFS
The test is described as follows: cryo-EM structure.

B1: MTF1 (yeast mitochondrial transcription factor) (natural protein, Saccharomyces cerevisiae)
chain: SVPIPGIKDISKLKFFYGFKYLWNPTVYNKIFDKLDLTKTYKHPEELKVLDLYPGVGIQSAIFYNKYCPRQYSLLEKRSSLYKFLNAKFEGSPLQILKRDPYDWSTYSNLIDEERIFVPEVQSSDHINDKFLTVANVTGEGSEGLIMQWLSCIGNKNWLYRFGKVKMLLWMPSTTARKLLARPGMHSRSKCSVVREAFTDTKLIAISDANELKGFDSQCIEEWDPILFSAAEIWPTKGKPIALVEMDPIDFDFDVDNWDYVTRHLMILKRTPLNTVMDSLGHGGQQYFNSRITDKDLLKKCPIDLTNDEFIYLTKLFMEWPFKPDILMDFVDMYQTEHSG
On to B1, for which the binding result is listed as “binds”.
